Source: patent US20200283521A1

Molecular target: human FcRn (human) (UniProt P55899)
Assay: SPR steady state at pH 6, FcRn coupled

Kd [µM]	Substance
1.18	isotype control human IgG1 (antibody)
2.6	isotype control human IgG4 antibody
